Results: patent publication US20180044385A1
Residue numbers refer to the chain shown, from its start. Values belong to the binder of their own block, whether it stands above or below them.

Assays:
[1] = target: Fab with lambda light chain (Cλ); assay: ELISA; reference is the Fab with kappa light chain
IgG2, IgG3 and IgG4 = assay: method not stated (data not shown)
[2] = target: 4D5 Fab scaffold possessing a human IgG1 CH1 and a Kappa light chain; assay: equilibrium SPR
[3] = target: 4D5 Fab scaffold possessing a human IgG1 CH1 and a Kappa light chain; assay: fluorescence polarization with Alexa-Fluor labeled Protein-G, pH varied
[4] = target: 4D5 Fab scaffold possessing a human IgG1 CH1 and a Kappa light chain; assay: SPR
[5] = target: FabHS (a human 4D5 scaffold with residues PEELRTNK replacing light chain positions 122-129); assay: protein ELISA

- EC50 ratio, Cλ Fab over CK Fab [1]: > 5000 fold
- fold decrease in affinity relative to human IgG1 (IgG2, IgG3 and IgG4): 20 to 50 fold
- Kd [2]: 25 nM
- fold decrease in affinity from pH 7.5 to pH 4 [3]: 1000 fold
- fold loss of affinity between pH 5.5 and pH 4.0 [3]: 300 fold
- fold higher affinity than wild-type Protein-G [4]: 100 fold
B1: Protein-G-A1 (designed binder)
chain: MKGETTTEAVDAATAEKVFKQYANDNGVDGEWTYDDATKTFTVTEKPEVIDASELTPAVTTYKLVINGRTLSGYTTTTAVDAATAEKVFKQYAYVHEVDGEWTYDDATKTFTVTEKPEVIDASELTPAVTTYKLVINGRTLSGETTTKAVDAETAEKAFKQYANDNGVDGVWTYDDATKTFTVTE

- IC50 [5]: 100 nM
B2: Protein-G-HS C7 (designed binder)
chain: MKGETTTEAVDAATAEKVFKQYANDNGVDGEWTYDDATKTFTVTEKPEVIDASELTPAVTTYKLVINGKTLKGETTTEAVDAATAEKVFKQYANDNGVDGEWTYDDATKTFTVTEKPEVIDASELTPAVTTYKLVINGRTLSGETTTKAVDAETAEKAFKQYAYGAVVDGVWTYDDATKTFTVTE

- IC50 [5]: 8 nM
B3: Protein-G-HS C6 (designed binder)
chain: B2 chain with A163S, Y164R, G165P, A166H
